The labels stand for the following.
T1: non-phosphorylated C-terminal TDP-43 peptide NAGSGSGFNGGFGSSMDSKSSGWGM (human, N-terminally biotinylated)
T1 construct: Synthetic biotinylated peptide captured on streptavidin plates; also called non-phosphorylated TDP-43
T1 peptide: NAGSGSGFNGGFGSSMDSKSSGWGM

B1: anti-TDP43 clone C, full-length human IgG1 format (antibody, V domains shown)
VH: QVQLVQSGAEVKKPGASVKVSCKASGFTFTEYSMHWVRQAPGQGLEWMGGINPNNGGTSYNQKFQGRVTMTRDTSTSTVYMELSSLRSEDTAVYYCARESWGQGTLVTVSS
VL: DIVMTQSPLSLPVTPGEPASISCKSSQSLLHSDGKTYLNWYLQKPGQSPQLLIYLGSNRASGVPDRFSGSGSGTDFTLKISRVEAEDVGVYYCFQGTHFPHTFGGGTKVEIK
notes: Tested as full-length human IgG1
B2: anti-TDP43 clone I, full-length human IgG1 format (antibody, V domains shown)
VH: QVQLVQSGAEVKKPGASVKVSCKASGFTFTEYSMHWVRQAPGQGLEWMGGINPNNGGTIYNQKFQGRVTMTRDTSTSTVYMELSSLRSEDTAVYYCARESWGQGTLVTVSS
VL: DIVMTQSPLSLPVTPGEPASISCKSSQSLLHSDGKTYLNWYLQKPGQSPQLLIYLGSNRASGVPDRFSGSGSGTDFTLKISRVEAEDVGVYYCMQGTHFPHTFGGGTKVEIK
notes: as for B1
B3: anti-TDP43 clone G, full-length human IgG1 format (antibody, V domains shown)
VH: QVQLVQSGAEVKKPGASVKVSCKASGFTFTEYSMHWVRQAPGQGLEWMGGINPNNGGTSYNQKFQGRVTMTRDTSTSTVYMELSSLRSEDTAVYYCASESWGQGTLVTVSS
VL: DIVMTQSPLSLPVTPGEPASISCKSSQSLLHSDGKTYLNWYLQKPGQSPQLLIYLVSKLKSGVPDRFSGSGSGTDFTLKISRVEAEDVGVYYCMQGTHFPHTFGGGTKVEIK
notes: as for B1
B4: anti-TDP43 clone O, full-length human IgG1 format (antibody, V domains shown)
VH: QVQLVQSGAEVKKPGASVKVSCKASGYTFTKYWMHWVRQAPGQGLEWMGEINPKNGRTNYNQKFQGRVTMTRDTSTSTVYMELSSLRSEDTAVYYCWRYMDYWGQGTLVTVSS
VL: DIVMTQSPLSLPVTPGEPASISCRSSQSLLHSNGYNYLDWYLQKPGQSPQLLIYKVSNRFSGVPDRFSGSGSGTDFTLKISRVEAEDVGVYYCLQHTHWPPTFGGGTKVEIK
notes: as for B1
B5: anti-TDP43 clone X, full-length human IgG1 format (antibody, V domains shown)
VH: QVQLVQSGAEVKKPGASVKVSCKASGYTFTSHYLHWVRQAPGQGLEWMGIINPSNGRTNYNQKFQGRVTMTRDTSTSTVYMELSSLRSEDTAVYYCWRYMDYWGQGTLVTVSS
VL: DIVMTQSPLSLPVTPGEPASISCRSSQSLLHSNGYNYLDWYLQKPGQSPQLLIYEVSNRFSGVPDRFSGSGSGTDFTLKISRVEAEDVGVYYCLQHTHWPPTFGGGTKVEIK
notes: as for B1
B6: anti-TDP43 clone C, scFv format (scFv)
scFv: QVQLVQSGAEVKKPGASVKVSCKASGFTFTEYSMHWVRQAPGQGLEWMGGINPNNGGTSYNQKFQGRVTMTRDTSTSTVYMELSSLRSEDTAVYYCARESWGQGTLVTVSSGGGGSGGGGSGGGGSDIVMTQSPLSLPVTPGEPASISCKSSQSLLHSDGKTYLNWYLQKPGQSPQLLIYLGSNRASGVPDRFSGSGSGTDFTLKISRVEAEDVGVYYCFQGTHFPHTFGGGTKVEIK
B7: anti-TDP43 clone B, scFv format (scFv)
scFv: QVQLVQSGAEVKKPGASVKVSCKASGFTFTELSMHWVRQAPGQGLEWMGGINPNNGGTSYNQKFQGRVTMTRDTSTSTVYMELSSLRSEDTAVYYCARESWGQGTLVTVSSGGGGSGGGGSGGGGSDIVMTQSPLSLPVTPGEPASISCKSSQSLLHSDGKTYLNWYLQKPGQSPQLLIYLASRRASGVPDRFSGSGSGTDFTLKISRVEAEDVGVYYCFQGTHFPHTFGGGTKVEIK
notes: also called VecTab B (as AAV5.2-encoded scFv)
B8: anti-TDP43 clone G, scFv format (scFv)
scFv: QVQLVQSGAEVKKPGASVKVSCKASGFTFTEYSMHWVRQAPGQGLEWMGGINPNNGGTSYNQKFQGRVTMTRDTSTSTVYMELSSLRSEDTAVYYCASESWGQGTLVTVSSGGGGSGGGGSGGGGSDIVMTQSPLSLPVTPGEPASISCKSSQSLLHSDGKTYLNWYLQKPGQSPQLLIYLVSKLKSGVPDRFSGSGSGTDFTLKISRVEAEDVGVYYCMQGTHFPHTFGGGTKVEIK
notes: also called VecTab G (as AAV5.2-encoded scFv)
B9: anti-TDP43 clone I, scFv format (scFv)
scFv: QVQLVQSGAEVKKPGASVKVSCKASGFTFTEYSMHWVRQAPGQGLEWMGGINPNNGGTIYNQKFQGRVTMTRDTSTSTVYMELSSLRSEDTAVYYCARESWGQGTLVTVSSGGGGSGGGGSGGGGSDIVMTQSPLSLPVTPGEPASISCKSSQSLLHSDGKTYLNWYLQKPGQSPQLLIYLGSNRASGVPDRFSGSGSGTDFTLKISRVEAEDVGVYYCMQGTHFPHTFGGGTKVEIK
notes: also called VecTab I (as AAV5.2-encoded scFv)
B10: anti-TDP43 clone S, scFv format (scFv)
scFv: QVQLVQSGAEVKKPGASVKVSCKASGYTFTKYWMHWVRQAPGQGLEWMGEINPSNGRTNYPQKFQGRVTMTRDTSTSTVYMELSSLRSEDTAVYYCWRYMDYWGQGTLVTVSSGGGGSGGGGSGGGGSDIVMTQSPLSLPVTPGEPASISCRSSQSLLHSNGYNYLDWYLQKPGQSPQLLIYKVSNRFTGVPDRFSGSGSGTDFTLKISRVEAEDVGVYYCMQHTHWPPAFGGGTKVEIK
notes: also called VecTab S (as AAV5.2-encoded scFv)
B11: anti-TDP43 clone X, scFv format (scFv)
scFv: QVQLVQSGAEVKKPGASVKVSCKASGYTFTSHYLHWVRQAPGQGLEWMGIINPSNGRTNYNQKFQGRVTMTRDTSTSTVYMELSSLRSEDTAVYYCWRYMDYWGQGTLVTVSSGGGGSGGGGSGGGGSDIVMTQSPLSLPVTPGEPASISCRSSQSLLHSNGYNYLDWYLQKPGQSPQLLIYEVSNRFSGVPDRFSGSGSGTDFTLKISRVEAEDVGVYYCLQHTHWPPTFGGGTKVEIK

One test addresses T1, non-phosphorylated C-terminal TDP-43 …. In words: ELISA, biotinylated peptide on streptavidin plate, IgG1 format, anti-human IgG1 HRP. As for the experimental part: (§1) The ability of clones to bind phosphorylated TDP-43 and/or non-phosphorylated TDP-43 was assessed using N-terminally biotinylated TDP-43 peptides having the following sequences: […] (SEQ ID NO: 218; non-phosphorylated); […] {PSER} SGWGM (SEQ ID NO: 219; phosphorylated S409); […] {PSER} GWGM (SEQ ID NO: 220; phosphorylated S410); and […] {PSER} {PSER} GWGM (SEQ ID NO: 221; phosphorylated S409/S410). Peptides were dissolved in 100% DMSO, aliquoted, and stored in −80° C. before use. Wells were incubated with 100 μL (5 μg/mL) of the peptides on streptavidin plates overnight at 4° C. The plates were then washed 3× in PBST wash buffer. Antibody clones B, C, G, I, O, S, U, and X, and non-binding controls (VRC07 for full-length IgG, and anti-methamphetamine clone 6H4 as control for the scFv experiments) were made in full-length human IgG₁ and scFv formats (IpA), and dilutions were prepared in blocking buffer (2% BSA). 100 μL/well of the dilutions were added to coated plates and the plates were incubated at RT for 1 hour. The plates were subsequently washed 3× with 250 μL/well wash buffer. 100 μL/well of primary antibody CEN63-C13 Rb-a-G4S (IpA) diluted in blocking buffer (2 μg/ml) was added and the plates were incubated for 1 hour at RT followed by 3× washing in PBST. For detection, 100 μL/well secondary antibodies (goat anti human IgG₁ HRP (Jackson ImmunoResearch) or goat anti-rabbit HRP for scFv (Promega)) diluted in blocking buffer (1:5000) was added to the wells and the plates were incubated for 1 hour at RT. The plates were subsequently washed 3× and 100 μL/well of TMB ready solution was added to the wells, followed by 3-4 minutes incubation in the dark. The reaction was stopped with 1M H₂SO₄ added to the wells (100 μL/well), and absorption measured on a GloMax plate reader (Promega) at […].
(In general: ELISA stands for enzyme-linked immunosorbent assay.)
B1: the binding result is recorded as “binds”.
Take B2: the binding result was “binds”.
Consider B3, for which the binding result is reported as “binds”.
Consider B4, for which the binding result is given as “binds”.
As for B5, the binding result is “binds”.

The target is the same in a further test. The test can be described thus: ELISA, biotinylated peptide on streptavidin plate, scFv format, rabbit anti-G4S and anti-rabbit HRP. As for the experimental part:
as §1
On to B6, for which the binding result is “binds”.
The same measure, in the same setting: then B7, with “binds”; and B8, with “binds”; and B9, with “binds”.

The next test has the same target. In words: ELISA, biotinylated peptide on streptavidin plate, scFv format, rabbit anti-G4S and anti-rabbit HRP; profile referred to: less efficient at binding non-phosphorylated TDP-43. On the procedure: as §1, with “100 μL/well of primary antibody CEN63-C13 Rb-a-G4S (IpA) diluted in blocking buffer (2 μg/ml) was added and the plates were incubated for 1 hour at RT followed by 3× washing in PBST. For detection, 100 μL/well secondary antibodies (goat anti human IgG₁ HRP (Jackson ImmunoResearch) or goat anti-rabbit HRP for scFv (Promega)) diluted in blocking buffer (1:5000) was added to the wells and the plates were incubated for 1 hour at RT.” left out
As for B10, the binding result is listed as “binds”.
On to B11, for which the binding result is “binds”.

Values taken from patent publication US20260176307A1 (VECTORY THERAPEUTICS B V, published 2026).
